Assay results from patent publication US20050272050A1 (published 2005).

T1: full length human CD154 on stably transfected mouse fibroblasts (human, UniProt P29965 1-261)
T1 construct: whole, on cells; also called membrane CD154; hCD154
T1 sequence (looked up): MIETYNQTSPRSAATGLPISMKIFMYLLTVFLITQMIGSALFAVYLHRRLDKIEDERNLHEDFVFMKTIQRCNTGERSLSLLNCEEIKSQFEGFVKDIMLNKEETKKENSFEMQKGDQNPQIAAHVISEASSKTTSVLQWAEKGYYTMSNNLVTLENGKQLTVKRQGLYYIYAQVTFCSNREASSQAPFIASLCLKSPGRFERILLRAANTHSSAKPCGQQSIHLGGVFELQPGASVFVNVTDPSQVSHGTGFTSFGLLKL

B1: CD40 NJ3 splice variant (receptor)
chain: EPPTACREKQYLINSQCCSLCQPGQKLVSDCTEFTETECLPCGESEFLDTWNRETHCHQHKYCDPNLGLRVQQKGTSETDTICTCEEGWHCTSEACESCVLHRSCSPGFGVKQIATGVSDTICEPCPVGFFSNVSSAFEKCHPWTSCETKDLVVQQAGTNKTDVVCGESWTMGPGESLGRSPGSAESPGGDPHHLRDPVCHPLGAGLYQKGGQEANQ
notes: For ELISA and FACS it was expressed non-fused with baculovirus, secreted and purified from the supernatant on a G28-5 column; also called CD40 NJ3 variant; CD40 variant NJ3
B2: CD40 NJ1 splice variant (receptor)
chain: EPPTACREKQYLINSQCCSLCQPGQKLVSDCTEFTETECLPCGESEFLDTWNRETHCHQHKYCDPNLGLRVQQKGTSETDTICTCEEGWHCTSEACESCVLHRSCSPGFGVKQIATGVSDTICEPCPVGFFSNVSSAFEKCHPWTSCETKDLVVQQAGTNKTDVVCGESWTMGPGESLGRWELKGEMRHTGTLDGKKGRGGSLGVWYHSSATYLGSLGKSLPLS
notes: For ELISA and FACS it was expressed non-fused with baculovirus, secreted and purified from the supernatant on a G28-5 column; also called CD40 NJ1 variant; CD40 variant NJ1

Target: T1, full length human CD154 on stably …
Test: flow cytometry on mouse fibroblasts transfected with human CD154, detected with PE-EA-5
Protocol: 10⁶ mouse fibroblasts (stably transfected with full length human CD154) were incubated with CD40 NJ1 (FIGS. 7-8) or CD40 NJ3 variants (FIGS. 9-11). All the proteins were incubated at a concentration of 1-50 μg/ml at 4° C. for 60 min in total volume of 100 μl (0.5×10^6 cells). […] Analysis was performed using BD FACsCalibur. A known CD40 soluble variant was used (in the form of a FC tagged protein) as a positive control for detecting binding to CD154 (U.S. patent application No. 60/547,422, hereby incorporated by reference as if fully set forth herein) (FIG. 17-18).
Briefly, the FACS protocol was as follows. Mouse fibroblasts were trypsinized, and washed twice in PBS; cells were centrifuged at 1500 rpm for 10 min between washes. Next, the cells were re-suspended in FACS buffer (0.2% BSA and 0.02% sodium azide diluted 1/10 in PBS) to give 5-10×10⁶ cells mL. Cells were placed in FACS test-tubes at a volume of 100 or 200 microliters per tube.
Next, 2 μL (1:50) […] non-blocking antibody (EA-5 mouse IgG1 PE-conjugated, obtained from Calbiochem) or controls (same isotype PE conjugated) were added to the tubes, and incubated for 30 min at 4° C. The process of washing was then repeated with 5 mL PBS. Next, 0.5 mL PBS was added to tubes, which were read in a FACS machine (BD FACSCalibur).

Binder	binding result
B1	binds
B2	binds
